In publication PMC8200006:

Biological target: purified pig brain plasma membrane Ca2+-ATPase (PMCA) (pig) (UniProt P23220)
Chain of UniProt P23220 (P23220 whole entry): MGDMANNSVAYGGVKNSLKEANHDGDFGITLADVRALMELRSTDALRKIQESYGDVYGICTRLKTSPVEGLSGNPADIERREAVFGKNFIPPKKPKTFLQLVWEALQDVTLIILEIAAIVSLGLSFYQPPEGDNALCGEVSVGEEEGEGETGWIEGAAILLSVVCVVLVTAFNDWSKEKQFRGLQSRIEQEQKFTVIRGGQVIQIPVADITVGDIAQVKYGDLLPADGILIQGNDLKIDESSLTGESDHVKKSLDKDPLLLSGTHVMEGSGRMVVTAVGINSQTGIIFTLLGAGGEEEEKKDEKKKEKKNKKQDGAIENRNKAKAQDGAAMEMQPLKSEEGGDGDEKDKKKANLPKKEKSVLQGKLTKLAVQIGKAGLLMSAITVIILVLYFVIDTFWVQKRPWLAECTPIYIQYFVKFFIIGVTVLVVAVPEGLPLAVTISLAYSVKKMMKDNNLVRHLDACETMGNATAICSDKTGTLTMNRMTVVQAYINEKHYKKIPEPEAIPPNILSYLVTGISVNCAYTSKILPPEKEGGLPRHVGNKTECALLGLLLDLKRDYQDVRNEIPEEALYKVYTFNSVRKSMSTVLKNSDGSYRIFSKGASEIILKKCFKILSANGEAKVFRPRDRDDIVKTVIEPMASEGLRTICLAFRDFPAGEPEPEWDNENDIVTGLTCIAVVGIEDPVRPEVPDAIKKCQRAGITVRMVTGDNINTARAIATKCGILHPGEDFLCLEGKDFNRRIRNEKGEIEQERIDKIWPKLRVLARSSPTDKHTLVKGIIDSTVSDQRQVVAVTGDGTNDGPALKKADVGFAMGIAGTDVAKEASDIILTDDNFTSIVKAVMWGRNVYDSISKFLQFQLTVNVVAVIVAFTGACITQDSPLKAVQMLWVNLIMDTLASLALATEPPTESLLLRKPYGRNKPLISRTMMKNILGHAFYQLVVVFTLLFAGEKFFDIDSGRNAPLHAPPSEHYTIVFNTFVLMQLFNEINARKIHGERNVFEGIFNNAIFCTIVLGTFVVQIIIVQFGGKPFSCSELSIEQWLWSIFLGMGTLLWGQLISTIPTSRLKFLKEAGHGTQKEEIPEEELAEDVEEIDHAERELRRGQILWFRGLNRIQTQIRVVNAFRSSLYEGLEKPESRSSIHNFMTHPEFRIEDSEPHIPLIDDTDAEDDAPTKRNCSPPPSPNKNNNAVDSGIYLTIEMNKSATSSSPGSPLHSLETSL

B1: Recombinant Human SRI (sorcin), soluble resistance-related calcium-binding protein (natural protein)
chain: MAYPGHPGAGGGYYPGGYGGAPGGPAFPGQTQDPLYGYFAAVAGQDGQIDADELQRCLTQSGIAGGYKPFNLETCRLMVSMLDRDMSGTMGFNEFKELWAVLNGWRQHFISFDTDRSGTVDPQELQKALTTMGFRLSPQAVNSIAKRYSTNGKITFDDYIACCVKLRALTDSFRRRDTAQQGVVNFPYDDFIQCVMSV
Q: Which results are given for B1?
A: Ca2+-ATPase activity of purified pig brain PMCA reconstituted in PC, sorcin 12.5-50 nM in the assay medium, with Ca2+: fold activation: 1.8 fold; Ca2+-ATPase activity of purified pig brain PMCA reconstituted in PC: EC50 of activation by sorcin (in the assay medium): 12.5 nM
